The supplement of paper PMC10126150
± gives the standard deviation of the averaged measurements.

System: ATP
Test: switch fluorescence ratio, 500 uM ATP over buffer (Cy3 cluster intensity, sum of 5 cycles each) (fold (ratio)); higher = stronger signal-on switching upon ATP binding; sequences stand for … in TCGTCGGCAGCGTCAGATGTGTATAAGAGACAGTTTTTTTTTTTTTTTTTTTTTTTTT…TC
Conditions: aptamer strand: ATP DNA aptamer (quencher-CACCTGGGGGAGTATTGCGGAGGAAGG + anchor), 100 nM annealed; ATP concentration: 500 uM
How it was run: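 Between each of five buffer/ATP cycles, the flow-cell was stripped with NaOH and re-annealed. Each cycle imaged Cy3-labelled switching-strand clusters, annealed to 100 nM quencher-labelled ATP aptamer on a modified Illumina MiSeq flow-cell, first in selection buffer and then after 15 min with 500 uM ATP at 22 °C. The fluorescence ratio is summed target-cycle over summed buffer-cycle Cy3 intensity per cluster, averaged per switch-domain sequence, with clusters outside 100-1000 RFU excluded.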
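Note: ATP exposure 15 min at 22 °C before imaging.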

| Sequence | switch fluorescence ratio |
| --- | --- |
| GGACATTCGC | 1.04 ± 0.013 |
| GGACCGGACG | 1.106 ± 0.0093 |
| GGACCTGCTG | 0.969 ± 0.0033 |
| GGACGAATGG | 1.02 ± 0.013 |
| GGACGATGGG | 0.995 ± 0.045 |
| GGACGGGGAT | 1 ± 0.015 |
| GGACGGGTGT | 0.996 ± 0.011 |
| GGACGGGTTT | 1 ± 0.031 |
| GGACGTAGTA | 1.006 ± 0.0071 |
| GGACGTATTA | 1.03 ± 0.051 |
| GGACGTGGGG | 0.953 ± 0.069 |
| GGACGTGGTA | 1.03 ± 0.028 |
| GGACTAGATG | 0.978 ± 0.013 |
| GGACTATGCG | 0.985 ± 0.032 |
| GGACTCCTAG | 0.995 ± 0.028 |
| GGACTGCGGT | 0.979 ± 0.022 |
| GGACTGCTGG | 1.03 ± 0.033 |
| GGACTTGTTT | 0.984 ± 0.022 |
| GGACTTTGGC | 0.983 ± 0.042 |
| GGACTTTTTG | 0.953 ± 0.045 |
| GGAGAACGAT | 1.03 ± 0.027 |
| GGAGAAGTCC | 1.03 ± 0.093 |
| GGAGAAGTGG | 0.976 ± 0.034 |
| GGAGAATGCC | 1.04 ± 0.053 |
| GGAGAATGCG | 1.02 ± 0.013 |

| Sequence | switch fluorescence ratio |
| --- | --- |
| GGAGAATTTT | 1.04 ± 0.049 |
| GGAGACTTGA | 0.986 ± 0.024 |
| GGAGAGGAAT | 1.01 ± 0.044 |
| GGAGAGGGAG | 0.9883 ± 0.0015 |
| GGAGAGGGTA | 1.01 ± 0.035 |
| GGAGATATCA | 1.035 ± 0.0074 |
| GGAGATGCAG | 0.969 ± 0.046 |
| GGAGATGCTA | 0.9616 ± 0.0059 |
| GGAGATGTCA | 1.013 ± 0.0081 |
| GGAGATTGAT | 1 ± 0.021 |
| GGAGATTTTA | 1.04 ± 0.068 |
| GGAGCGAAGT | 1.16 ± 0.26 |
| GGAGCGAGAG | 3.37 ± 0.28 |
| GGAGCGATGG | 3.31 ± 1.2 |
| GGAGCTGGGG | 1.04 ± 0.065 |
| GGAGCTTGCA | 1.02 ± 0.023 |
| GGAGGCAGTT | 0.9738 ± 0.006 |
| GGAGGCATAT | 1.13 ± 0.039 |
| GGAGGCGGAG | 1.002 ± 0.0077 |
| GGAGGCTGGT | 1.018 ± 0.01 |
| GGAGGGAGTT | 1.03 ± 0.049 |
| GGAGGGCAAC | 1.01 ± 0.028 |
| GGAGGGCGTC | 0.952 ± 0.0048 |
| GGAGGGGAGC | 0.974 ± 0.056 |
| GGAGGGGGTA | 1.01 ± 0.016 |

| Sequence | switch fluorescence ratio |
| --- | --- |
| GGAGGGGGTG | 0.989 ± 0.044 |
| GGAGGGGTCA | 0.9744 ± 0.0097 |
| GGAGGGGTCG | 1.02 ± 0.033 |
| GGAGGGTGCG | 1.011 ± 0.0064 |
| GGAGGGTTGG | 0.998 ± 0.059 |
| GGAGGGTTTG | 0.992 ± 0.034 |
| GGAGGTACAC | 1.03 ± 0.037 |
| GGAGTAAATG | 1.01 ± 0.015 |
| GGAGTAAGAG | 1.11 ± 0.21 |
| GGAGTACCGG | 1.01 ± 0.049 |
| GGAGTCATGA | 0.982 ± 0.04 |
| GGAGTCGTCC | 1.01 ± 0.024 |
| GGAGTCTAGG | 0.994 ± 0.031 |
| GGAGTGACGG | 0.9979 ± 0.0024 |
| GGAGTGAGGG | 0.985 ± 0.05 |
| GGAGTGTGGG | 0.986 ± 0.019 |
| GGAGTGTGTG | 0.96 ± 0.044 |
| GGAGTTAGGG | 0.977 ± 0.011 |
| GGAGTTGTTG | 0.99 ± 0.009 |
| GGAGTTTCGT | 0.988 ± 0.023 |
| GGATAATAGT | 0.9916 ± 0.0082 |
| GGATAATGGC | 0.94 ± 0.059 |
| GGATACGTTT | 0.994 ± 0.012 |
| GGATAGAGTG | 0.971 ± 0.052 |
| GGATAGGGGA | 1.01 ± 0.017 |

| Sequence | switch fluorescence ratio |
| --- | --- |
| GGATAGGGGT | 1.05 ± 0.062 |
| GGATAGGGTG | 1.06 ± 0.076 |
| GGATATAAGT | 1.01 ± 0.035 |
| GGATCAATGT | 0.998 ± 0.02 |
| GGATCATTCG | 1.02 ± 0.048 |
| GGATCATTTA | 1.03 ± 0.042 |
| GGATCCAGTA | 1.02 ± 0.045 |
| GGATCCATAC | 1.01 ± 0.014 |
| GGATCCGGGA | 1.0104 ± 2.5e-05 |
| GGATCCTGTT | 1.01 ± 0.027 |
| GGATCGCGAG | 0.9797 ± 0.0074 |
| GGATCTTGGG | 1.0038 ± 0.00073 |
| GGATGAATGG | 1.03 ± 0.043 |
| GGATGAGGGT | 0.986 ± 0.018 |
| GGATGCAAGT | 0.998 ± 0.039 |
| GGATGCAGC | 0.992 ± 0.024 |
| GGATGCAGGG | 0.999 ± 0.012 |
| GGATGCGTG | 0.985 ± 0.059 |
| GGATGGATGA | 1.07 ± 0.073 |
| GGATGGCATG | 0.979 ± 0.039 |
| GGATGGCGGA | 0.997 ± 0.024 |
| GGATGGGTTG | 1.09 ± 0.19 |
| GGATGGTGCT | 0.948 ± 0.027 |
| GGATGGTTCA | 1.05 ± 0.072 |
| GGATGGTTTC | 1.01 ± 0.023 |

| Sequence | switch fluorescence ratio |
| --- | --- |
| GGATGTAGCG | 0.985 ± 0.051 |
| GGATGTCAGG | 1 ± 0.045 |
| GGATGTGAAG | 0.9818 ± 0.0027 |
| GGATGTTATG | 1.016 ± 0.0078 |
| GGATTAAGCT | 1.015 ± 0.0043 |
| GGATTAGCTG | 1.01 ± 0.049 |
| GGATTAGG | 0.99 ± 0.025 |
| GGATTAGGTT | 1.01 ± 0.011 |
| GGATTATCTC | 1.015 ± 0.0044 |
| GGATTATTAG | 0.965 ± 0.016 |
| GGATTCAGCA | 1.01 ± 0.022 |
| GGATTCATTT | 1.054 ± 0.0087 |
| GGATTCTTAG | 0.986 ± 0.049 |
| GGATTGAATC | 1 ± 0.015 |
| GGATTGAGGG | 0.968 ± 0.021 |
| GGATTGCAAG | 0.998 ± 0.013 |
| GGATTGCTCG | 1.03 ± 0.029 |
| GGATTGGATT | 1 ± 0.022 |
| GGATTGGCGT | 1 ± 0.044 |
| GGATTGGTCC | 1.14 ± 0.16 |
| GGATTGGTTT | 0.983 ± 0.03 |
| GGATTGTCAG | 0.9847 ± 0.0024 |
| GGATTTGAAT | 1.03 ± 0.031 |
| GGATTTGGG | 0.964 ± 0.014 |
| GGATTTTAAA | 1 ± 0.022 |

| Sequence | switch fluorescence ratio |
| --- | --- |
| GGATTTTTAG | 0.99134 ± 0.00052 |
| GGATTTTTTA | 1.006 ± 1.6e-05 |
| GGCAATATAG | 1.141 ± 0.006 |
| GGCAATGAAA | 0.999 ± 0.019 |
| GGCAATTCAG | 1.07 ± 0.019 |
| GGCACAAAAG | 0.983 ± 0.019 |
| GGCACATAAG | 1.012 ± 0.0033 |
| GGCACATGGG | 1.01 ± 0.028 |
| GGCACCTGGG | 1.02 ± 0.016 |
| GGCACGTATA | 1.17 ± 0.014 |
| GGCACTATAT | 1.04 ± 0.023 |
| GGCACTTCGG | 0.99 ± 0.014 |
| GGCAGAGGAG | 1.01 ± 0.0063 |
| GGCAGCCTTT | 1.0169 ± 0.00028 |
| GGCAGCTGGA | 0.9578 ± 0.0072 |
| GGCAGGGGGC | 1.02 ± 0.031 |
| GGCAGGGGTA | 0.995 ± 0.028 |
| GGCAGGGGTG | 1.11 ± 0.015 |
| GGCAGGTTTT | 0.996 ± 0.035 |
| GGCAGTACGT | 1.27 ± 0.066 |
| GGCAGTCACG | 1.02 ± 0.014 |
| GGCATAAGTG | 1.016 ± 0.0087 |
| GGCATATGCG | 1.013 ± 0.0068 |
| GGCATCGCGA | 1.1 ± 0.064 |
| GGCATGGGGG | 0.984 ± 0.017 |

| Sequence | switch fluorescence ratio |
| --- | --- |
| GGCATGGGTT | 1 ± 0.019 |
| GGCATTACTA | 1.21 ± 0.022 |
| GGCATTAGTT | 0.992 ± 0.043 |
| GGCATTGGGT | 1.0068 ± 0.00028 |
| GGCCACGTAG | 1.02 ± 0.022 |
| GGCCATATGT | 1.02 ± 0.016 |
| GGCCCCGTTT | 1.04 ± 0.18 |
| GGCCCGGACT | 1.04 ± 0.013 |
| GGCCCTGGGA | 1.02 ± 0.029 |
| GGCCGAAGCG | 1.07 ± 0.049 |
| GGCCGATATG | 0.996 ± 0.015 |
| GGCCGGCCAG | 1.01 ± 0.047 |
| GGCCGTAGCG | 0.986 ± 0.025 |
| GGCCGTGTGG | 0.998 ± 0.023 |
| GGCCTAGGCT | 1.02 ± 0.013 |
| GGCCTCCGGT | 1.09 ± 0.018 |
| GGCCTGGCTA | 0.974 ± 0.02 |
| GGCCTGGGGG | 1 ± 0.019 |
| GGCCTTGTCG | 1.06 ± 0.046 |
| GGCCTTGTG | 0.962 ± 0.035 |
| GGCCTTTGCT | 1.02 ± 0.041 |
| GGCGACAGAG | 1.04 ± 0.051 |
| GGCGAGAGGG | 0.979 ± 0.042 |
| GGCGATCACG | 0.9834 ± 0.006 |
| GGCGCACTAT | 1.22 ± 0.051 |

| Sequence | switch fluorescence ratio |
| --- | --- |
| GGCGCACTGT | 1.02 ± 0.021 |
| GGCGCCATGA | 1.034 ± 0.0036 |
| GGCGCCATGG | 0.986 ± 0.055 |
| GGCGCCTGGG | 0.9875 ± 0.0033 |
| GGCGCGGGGG | 1.03 ± 0.023 |
| GGCGCTTGGG | 0.986 ± 0.022 |
| GGCGCTTTTC | 1 ± 0.058 |
| GGCGGAACTA | 1.01 ± 0.018 |
| GGCGGAAGTA | 1 ± 0.019 |
| GGCGGAGAGA | 1.03 ± 0.07 |
| GGCGGAGGGA | 0.99 ± 0.011 |
| GGCGGATAAG | 0.979 ± 0.013 |
| GGCGGATATG | 1.009 ± 0.0097 |
| GGCGGATCGA | 0.998 ± 0.063 |
| GGCGGGGCAC | 0.989 ± 0.038 |
| GGCGGGGGGA | 1.01 ± 0.032 |
| GGCGGGGGTT | 1.03 ± 0.017 |
| GGCGGGTCGG | 0.972 ± 0.029 |
| GGCGTAAGTG | 0.953 ± 0.027 |
| GGCGTATTGG | 0.988 ± 0.027 |
| GGCGTCGACG | 1.02 ± 0.11 |
| GGCGTGTGGT | 0.991 ± 0.066 |
| GGCGTTTTGA | 1.04 ± 0.021 |
| GGCGTTTTGG | 0.982 ± 0.026 |
| GGCTAAAATT | 0.999 ± 0.042 |
